One sequence from US20030191083 can be followed below.

This data set concerns the target T1, RNase P protein (SPP, SP protein) (Staphylococcus aureus) (UniProt A8YYS2).
T1 sequence: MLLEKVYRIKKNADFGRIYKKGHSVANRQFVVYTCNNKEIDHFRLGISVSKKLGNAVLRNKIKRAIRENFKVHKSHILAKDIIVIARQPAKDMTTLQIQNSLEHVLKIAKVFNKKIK
Nature of the data set: filter.

By Kd is commonly meant a measure of binding affinity in units of concentration. Consider “GUUCUGAUAUUUUGGGUAAUCGCUAUAUUAUAUAGAGGAAAGUCCAUGCUCACACAGUCUGAGAUGAUUGUAGUGUUCGUGCUUGAUGAAACAAUAAAUCAAGGCAUUAAUUUGACGGCAAUGAAAUAUCCUAAGUCUUUCGAUAUGGAUAGAGUAAUUUGAAAGUGCCACAGUGACGUAGCUUUUAUAGAAAUAUAAAAGGUGGAACGCGGUAAACCCCUCGAGUGAGCAAUCCAAAUUUGGUAGGAGCACUUGUUUAACGGAAUUCAACGUAUAAACGAGACACACUUCGCGAAAUGAAGUGGUGUACGACAGAUGGUUAUCACCUGAGUACCAGUGUGACUAGUGCACGUGAUGAGUACGAUGGAACAGAACAUGGCUUAUAGAAAUAUCACUACUA [S. aureus RNase P RNA (SP RNA)]”, for which the equilibrium dissociation constant (Kd) came to 8 nM (20 mM K-Hepes pH 8.0, 0.01% NP40, 400 mM NH4OAc, 10 mM MgCl2, 5% glycerol, at least three experiments); 20 nM (binding constant of the complex stated in summary, filter binding and gel shift, differs from 8 nM in p322).
